Measured values published in US20030037355, “Methods and compositions to modulate expression in plants” (published 2003).

B1: m34 hairpin oligo (dsDNA)
DNA: GGAGCCAACTACTACGGCTCCCTCACCGGGTTTTCCCGGTGAGGGAGCCGTAGTAGTTGGCTCC
B2: AP3 endogenous target site (dsDNA)
DNA 1: GATGGAGTTGAAGAAGTA
DNA 2: TACTTCTTCAACTCCATC

Assays:
[1] = biological target: T1, ZFPm4 six-finger zinc finger protein (Sp1C framework) (artificial); experiment: ELISA, 15.5 ug/ml protein, non-target; details: tags: MBP fusion (pMAL-C2), E. coli; label: 5'-biotin; hairpin
Procedure: (§1) Coat ELISA plates (Costar 3690) with streptavidin. Use 25 ul/well of 8 ug/ml streptavidin in PBS. Incubate at 37° C. for 1 hr. Wash 2× with dH2O. Bind wells with 25 ul/well of 4 ng/ul biotinylated target oligonucleotide in PBS. Incubate at 37° C. for 1 hr. Wash 2× with dH2O. Block with 175 ul/well of 3% BSA in Zn Buffer A. Incubate at 37° C. for 1 hr. Tap plates dry. Perform 1:2 serial dilutions of extract in Binding Buffer (1%BSA, 5 mM DTT, .12 ug/ul Salmon Sperm DNA in ZnBA). Usually from 1:4 to 1:512 for multi-target ELISA or 1:4 to 1:32 for screening clones for specific DNA binding activity. Incubate 1 hr at room temperature. Wash 8× with dH2O. Add primary antibody: 25 ul/well of 1:1000 dilution of mouse anti-MBP (Sigma M-6295) in 1%BSA ZnBA (no DTT). Incubate 30 min at room temperature. Wash 8× with dH2O. Add secondary antibody: 25 ul/well of 1:1000 dilution of goat anti-mouse/Alkaline Phosphatase (Pierce 31324) in 1%BSA ZnBA (no DTT). Incubate 30 min at room temperature. Wash 8× with dH2O. Develop with 25 ul developer (1 tablet of Sigma 104 Phosphatase Substrate (Sigma 104-105)/5 ml AP Developing Buffer [100 ml diethanolamine+0.05 g MgCl2+97.5 Sodium Azide, adjust to 500 ml with ddH2O, pH 9.88]). Incubate at room temperature for 5-60 min until color reaction is yellow. Read A405 with a plate reader.
(§2) To evaluate the specificity of new zinc finger protein, the affinity of each protein was determined for binding to the target sequence and several non-target sequences at appropriate protein concentration. For example, to protein ZFPm1 and ZFPm2, the non-target oligoes are: Oligo m34 (SEQ ID NO:20), Oligo Ap3 (SEQ ID NO:21), NRI-1 (SEQ ID NO:22), NRI-2 (SEQ ID NO:23), hHD-I (SEQ ID NO:24), hHD-II (SEQ ID NO:25), c5cl-g (SEQ ID NO:26), c5p3-g (SEQ ID NO:27), B3c2 (SEQ ID NO:28), and e2c-g (SEQ ID NO:29). Similarly, to protein ZFPm3 and ZFPm4, the non-target oligoes are Oligo m12 (SEQ ID NO:19), oligo Ap3 (SEQ ID NO:21), and the eight other oligoes. To protein ZFPAp3, the non-target oligoes are Oligo m12, oligo m34 (SEQ ID NO:20), and the eight other oligoes. The affinity reading for target oligo was further normalized to the no oligo control which has the least affinity.

[2] = biological target: ZFPm2 six-finger zinc finger protein (Sp1C framework) (artificial); experiment: ELISA, 15.5 ug/ml protein, non-target; details: tags: MBP fusion (pMAL-C2), E. coli, hairpin
Procedure: as §1, §2

[3] = biological target: T2, ZFPm3 six-finger zinc finger protein (Sp1C framework) (artificial); experiment: ELISA, 1.9 ug/ml protein, non-target; details: tags: MBP fusion (pMAL-C2), E. coli; label: 5'-biotin; hairpin
Procedure: as §1, §2

[4] = biological target: ZFPAp3 six-finger zinc finger protein (Sp1C framework) (artificial); experiment: ELISA, 31.0 ug/ml protein, non-target; details: tags: MBP fusion (pMAL-C2), E. coli, hairpin
Procedure: as §1, §2

[5] = biological target: ZFPm1 six-finger zinc finger protein (Sp1C framework) (artificial); experiment: ELISA, 31.0 ug/ml protein, non-target; details: tags: MBP fusion (pMAL-C2), E. coli, hairpin
Procedure: as §1, §2

[6] = biological target: T1, ZFPm4 six-finger zinc finger protein …; experiment: ELISA, 15.5 ug/ml protein; details: tags: MBP fusion (pMAL-C2), E. coli; label: 5'-biotin (ELISA); 32P (gel shift); hairpin
Procedure: as §1, with “Develop with 25 ul developer (1 tablet of Sigma 104 Phosphatase Substrate (Sigma 104-105)/5 ml AP Developing Buffer [100 ml diethanolamine+0.05 g MgCl2+97.5 Sodium Azide, adjust to 500 ml with ddH2O, pH 9.88]). Incubate at room temperature for 5-60 min until color reaction is yellow.” left out
(§3) To evaluate the specificity of new zinc finger protein, the affinity of each protein was determined for binding to the target sequence and several non-target sequences at appropriate protein concentration. […] The affinity reading for target oligo was further normalized to the no oligo control which has the least affinity.

[7] = biological target: T2, ZFPm3 six-finger zinc finger protein …; experiment: EMSA; Zn Buffer A, 10% glycerol, 0.8% BSA, salmon sperm DNA, room temp; details: tags: MBP fusion (pMAL-C2), E. coli; label: 5'-biotin (ELISA); 32P (gel shift); hairpin
Procedure: (§4) The affinity of the purified six-finger proteins was measured using gel shift assay. The target oligos used in the ELISA assays were radioactively labeled using [γ32P]-ddATPk and terminal transferase. Ten serial dilutions of 1:3 with the purified protein (starting with ˜1 mg/ml) in binding buffer (1 pM labeled oligo, 10% Glycerol, 0.8% BSA, 0.1 ug/ul salmon sperm DNA in Zn Buffer A) were performed. The ZFP was allowed to bind at room temperature for 1 hr. The samples were then run on 5-6% non-denaturing PAGE gel in TBE. The gel was dried and exposed with Phosphoimager. The affinity (Kd) of the ZFP was calculated from this gel. The Kd value is the concentration of the protein at which half of the labeled oligo is shifted to a higher molecular weight on the gel by binding to the ZFP. […] Most of these affinities compare favorably with the existed 6 finger proteins.

[8] = biological target: T1, ZFPm4 six-finger zinc finger protein …; experiment: as above; details: tags: MBP fusion (pMAL-C2), E. coli; label: 5'-biotin (ELISA); 32P (gel shift); hairpin
Procedure: as §4

[9] = biological target: T2, ZFPm3 six-finger zinc finger protein …; experiment: ELISA, 1.9 ug/ml protein; details: tags: MBP fusion (pMAL-C2), E. coli; label: 5'-biotin (ELISA); 32P (gel shift); hairpin
Procedure: as §1, with “Develop with 25 ul developer (1 tablet of Sigma 104 Phosphatase Substrate (Sigma 104-105)/5 ml AP Developing Buffer [100 ml diethanolamine+0.05 g MgCl2+97.5 Sodium Azide, adjust to 500 ml with ddH2O, pH 9.88]). Incubate at room temperature for 5-60 min until color reaction is yellow.” left out
as §3

[10] = biological target: SID-ZFPAp3 (artificial); experiment: cell_activity; endogenous AP3, transgenic Arabidopsis ND0052-2e; 5 fold in ND0052-257; details: tags: SID
[11] = label: 5'-biotin (ELISA), 32P (gel shift)

Chain of ZFPAp3 six-finger zinc finger protein (Sp1C framework) (artificial) (chain, as listed by the source): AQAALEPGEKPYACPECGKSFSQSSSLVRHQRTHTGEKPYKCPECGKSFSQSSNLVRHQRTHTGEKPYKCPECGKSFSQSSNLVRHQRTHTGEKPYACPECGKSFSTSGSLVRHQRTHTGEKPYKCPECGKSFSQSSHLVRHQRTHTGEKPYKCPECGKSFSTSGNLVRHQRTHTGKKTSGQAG
Chain of ZFPm2 six-finger zinc finger protein (Sp1C framework) (artificial) (chain, as listed by the source): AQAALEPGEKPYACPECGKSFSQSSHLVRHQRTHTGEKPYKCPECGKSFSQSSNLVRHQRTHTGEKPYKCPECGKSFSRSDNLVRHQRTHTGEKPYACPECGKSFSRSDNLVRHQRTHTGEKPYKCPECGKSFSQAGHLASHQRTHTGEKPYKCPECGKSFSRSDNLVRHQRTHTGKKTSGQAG
T2 sequence (chain, as listed by the source): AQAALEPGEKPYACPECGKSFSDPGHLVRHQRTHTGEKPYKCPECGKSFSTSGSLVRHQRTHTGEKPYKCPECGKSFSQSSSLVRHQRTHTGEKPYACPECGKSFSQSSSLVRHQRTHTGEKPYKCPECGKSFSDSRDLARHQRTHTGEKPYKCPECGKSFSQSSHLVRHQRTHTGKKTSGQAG
T1 sequence (chain, as listed by the source): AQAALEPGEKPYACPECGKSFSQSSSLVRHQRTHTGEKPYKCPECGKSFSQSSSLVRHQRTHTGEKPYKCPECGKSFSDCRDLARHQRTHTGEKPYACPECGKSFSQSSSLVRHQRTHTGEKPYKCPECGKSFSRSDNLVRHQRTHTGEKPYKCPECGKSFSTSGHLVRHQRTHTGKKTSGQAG
Chain of ZFPm1 six-finger zinc finger protein (Sp1C framework) (artificial) (chain, as listed by the source): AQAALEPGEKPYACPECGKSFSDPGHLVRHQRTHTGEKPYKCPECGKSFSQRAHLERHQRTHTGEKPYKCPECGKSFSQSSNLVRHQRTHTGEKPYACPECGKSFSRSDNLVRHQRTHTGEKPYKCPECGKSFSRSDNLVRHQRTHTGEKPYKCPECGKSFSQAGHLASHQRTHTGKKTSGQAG

| Binder | binding signal [1] | binding signal ([2]; label: 5'-biotin) | binding signal [3] | binding signal ([4]; label: 5'-biotin) | binding signal ([5]; label: 5'-biotin) | binding signal [6] | binding signal [2, 11] | Kd [7] | Kd [8] | binding signal [4, 11] | binding signal [5, 11] | binding signal [9] | activity [10] |
| --- | --- | --- | --- | --- | --- | --- | --- | --- | --- | --- | --- | --- | --- |
| GGGGCCCCGCCTCCGCCGGCGGGTTTTCCCGCCGGCGGAGGCGGGGCCCC (dsDNA) [hHD-I] | 2 fold over no oligo | 3 fold over no oligo | 1 fold over no oligo | 2 fold over no oligo | 5 fold over no oligo | – | – | – | – | – | – | – | – |
| GGCACTGCGGCTCCGGCCCCGGGTTTTCCCGGGGCCGGAGCCGCAGTGCC (dsDNA) [e2c-g] | 5 fold over no oligo | 2 fold over no oligo | 9 fold over no oligo | 3 fold over no oligo | 2 fold over no oligo | – | – | – | – | – | – | – | – |
| B1 | – | – | – | – | – | 16 fold over no oligo | 13 fold over no oligo | 180 pM | 250 pM | 10 fold over no oligo | 5 fold over no oligo | 13 fold over no oligo | – |
| B2 | – | – | – | – | – | – | – | – | – | – | – | – | 46 fold repression |
| GGGACACCCCCAACCCCGCCGGGTTTTCCCGGCGGGGTTGGGGGTGTCCC (dsDNA) [c5c1-g] | 3 fold over no oligo | 5 fold over no oligo | 3 fold over no oligo | 2 fold over no oligo | 7 fold over no oligo | – | – | – | – | – | – | – | – |
| GGTTCTACCCCTCCCACCGCGGGTTTTCCCGCGGTGGGAGGGGTAGAACC (dsDNA) [NRI-1] | 5 fold over no oligo | 7 fold over no oligo | 4 fold over no oligo | 8 fold over no oligo | 5 fold over no oligo | – | – | – | – | – | – | – | – |
